Measured values from PMC13134614, “In vitro liquid-liquid phase separation induced by respiratory syncytial virus proteins and RNA” (Science Advances, 2025).

How the values were obtained:
[1] = target: T1, RSV nucleoprotein N fused to mCherry (N-mCherry), N rings (respiratory syncytial virus (RSV), UniProt P03418 1-391); experiment: microfluidic diffusional sizing (MDS); 0.5 μM N-mCherry with increasing concentrations of unlabeled P or P domains, incubated 30 min in the dark; 150 mM NaCl, 20 mM tris pH 7.4; hydrodynamic radius of N in triplicate, Fluidity One-M; conditions: both partners purified
T1 construct: Nucleoprotein N of respiratory syncytial virus, 391 residues; from the plasmid pET-mCherry-N; The results call the sample of the MDS experiment 'N rings' (N-RNA oligomers holding bacterial RNA); The plasmid is named pET-mCherry-N, the methods of MDS say 'N-mCherry', so the end of mCherry is open; source: E. coli BL21 (DE3), purified (gel filtration)
T1 sequence (looked up): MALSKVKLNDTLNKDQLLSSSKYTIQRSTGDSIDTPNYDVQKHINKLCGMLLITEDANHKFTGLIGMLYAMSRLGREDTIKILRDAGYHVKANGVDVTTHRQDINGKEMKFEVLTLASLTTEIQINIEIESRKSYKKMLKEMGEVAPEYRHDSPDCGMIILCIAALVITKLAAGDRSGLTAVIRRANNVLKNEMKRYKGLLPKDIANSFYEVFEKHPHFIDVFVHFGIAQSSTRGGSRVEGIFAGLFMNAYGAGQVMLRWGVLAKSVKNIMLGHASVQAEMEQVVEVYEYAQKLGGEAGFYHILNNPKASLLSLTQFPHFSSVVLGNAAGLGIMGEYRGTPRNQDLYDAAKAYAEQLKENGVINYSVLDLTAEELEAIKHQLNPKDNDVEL

[2] = target: T2, M2-1 (Respiratory syncytial virus, UniProt P04545 1-194); experiment: EMSA (native agarose gel, Amido black protein stain); 10 uM protein, 15 uM RNA; no band shift (none or too weak to detect); EMSA: 20 mM Tris pH 8, 150 mM NaCl, 30 min room temperature, 1% native agarose in 1X Tris-glycine; PhaseScan: 20 mM Tris-HCl pH 7.4, 150 mM NaCl, no crowding agent; conditions: protein: recombinant; tags: GST fusion vector pGEX-M2-1; chain copies: 4; single strand
T2 sequence: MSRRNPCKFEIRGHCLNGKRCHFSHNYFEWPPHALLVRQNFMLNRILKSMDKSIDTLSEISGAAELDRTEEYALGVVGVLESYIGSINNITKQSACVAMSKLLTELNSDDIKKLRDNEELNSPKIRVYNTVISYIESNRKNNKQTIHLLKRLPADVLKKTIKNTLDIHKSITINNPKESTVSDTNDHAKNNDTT

[3] = target: T2, M2-1; experiment: EMSA (native agarose gel, Amido black protein stain); 10 uM protein, 15 uM RNA; clear band shift; EMSA: 20 mM Tris pH 8, 150 mM NaCl, 30 min room temperature, 1% native agarose in 1X Tris-glycine; PhaseScan: 20 mM Tris-HCl pH 7.4, 150 mM NaCl, no crowding agent; conditions: protein: recombinant; tags: GST fusion vector pGEX-M2-1; chain copies: 4; single strand

B1: RSV phosphoprotein P residues 127-241 (domain or fragment, respiratory syncytial virus (RSV), UniProt P03421 127-241, looked up)
chain: TNDNITARLDRIDEKLSEILGMLHTLVVASAGPTSARDGIRDAMIGLREEMIEKIRTEALMTNDRLEAMARLRNEESEKMAKDTSDEVSLNPTSEKLNNLLEGNDSDNDLSLEDF
notes: Holds the tetramerization domain POD (131 to 151); source: E. coli BL21 (DE3), purified (gel filtration)
Kd [1]: 2600 ± 900 nM

AGCGUAC (ssRNA, 5' OH) [5' OH 7-mer RNA]
binding result [2]: no binding

B2: 5' cap 7-mer RNA (ssRNA)
RNA: AGCGUAC
modifications: 5' cap (7mGppp, 2'-O-methyl on first nucleotide as generally described); cap G not counted in strand
binding result [3]: binds
